Laboratory results taken from patent CN116063469A (UNIV ZHONGSHAN, dated 2023).

Molecular target: T1, 寨卡病毒包膜蛋白的结构域III (ZIKV-EDⅢ抗原) (Zika virus (strain NCBI KU740184.2))
T1 construct: domain: 结构域III (EDIII); also called ZIKV-EDIII; ZIKV EDIII
Assay: SPR (OpenSPR, COOH chip), ZIKV-EDIII immobilised, nanobody as analyte, 1:1 model

B1: 纳米抗体Nb-E5 (VHH)
VHH: SDSEVNQEAKPEVKPEVKPETHINLKVSDGSSEIFFKIKKTTPLRRLMEAFAKRQGKEMDSLRFLYDGIRIQADQTPEDLDMEDNDIIEAHREQIGGMAVQLVESGGGLVQPGGSLRLSCKVSGRPFTTYALGWFRQAPGKEREFLTVGAWRGQIFTAESVRGRFTISLDTAKNTFDLQMNSLNIEDTAVYYCAAGSRSSNTPQADPGSFDYWGQGTQVTVSSGAR
notes: no removal of the tag is told, and detection used anti-SMT3 / anti-His antibodies; From a naive alpaca phage library; not shown: 6×His tag at the N-terminus of SUMO (pET-28a-SUMO vector)
Kd: 8.22 nM
